These results are taken from patent publication US20180179296A1.

For test [1], the target named is Design 14 L1: D3H44 light chain Q124E_Q160E_T178D (humanized). Briefly: light chain competition assay: heavy chain co-expressed with L1 and L2, SPR read-out of light-chain tags; competitor Design 14 L2.
Test [2] deals with Design 14 L2: D3H44 light chain Q124R_Q160K_T178R (humanized). Nature of the test: light chain competition assay: heavy chain co-expressed with L1 and L2, SPR read-out of light-chain tags; competitor Design 14 L1.
In test [3] the target is Design 32 L1: D3H44 light chain Q38R (humanized). Nature of the test: light chain competition assay: heavy chain co-expressed with L1 and L2, SPR read-out of light-chain tags; competitor Design 32 L2.
The target of test [4] is Design 32 L2: D3H44 light chain Q38E_F98W (humanized). Nature of the test: light chain competition assay: heavy chain co-expressed with L1 and L2, SPR read-out of light-chain tags; competitor Design 32 L1.
Test [5] deals with Design 26 L2: D3H44 light chain F116A_S131K_L135A (humanized). Nature of the test: light chain competition assay: heavy chain co-expressed with L1 and L2, SPR read-out of light-chain tags; competitor Design 26 L1.
Test [6] addresses Design 26 L1: D3H44 light chain L135W (humanized). Briefly: light chain competition assay: heavy chain co-expressed with L1 and L2, SPR read-out of light-chain tags; competitor Design 26 L2.
Test [7] concerns the target tissue factor extracellular domains (human) (UniProt P13726). Nature of the test: SPR (ProteOn XPR36), TF immobilised, heterodimer as analyte, 1:1 model.
Test [8] deals with Design 13 L1: D3H44 light chain Q124E_V133W_Q160E_T180E (humanized). Briefly: light chain competition assay: heavy chain co-expressed with L1 and L2, SPR read-out of light-chain tags; competitor Design 13 L2.
The target of test [9] is Design 13 L2: D3H44 light chain V133A_Q160K_T178R (humanized). Briefly: light chain competition assay: heavy chain co-expressed with L1 and L2, SPR read-out of light-chain tags; competitor Design 13 L1.
In test [10] the target is Design 27 L2: D3H44 light chain F118W_Q124E_V133S_S176A_T178S_T180E (humanized). Briefly: light chain competition assay: heavy chain co-expressed with L1 and L2, SPR read-out of light-chain tags; competitor Design 27 L1.
Test [11] addresses Design 27 L1: D3H44 light chain F116A_V133G_S176F_T178A (humanized). Briefly: light chain competition assay: heavy chain co-expressed with L1 and L2, SPR read-out of light-chain tags; competitor Design 27 L2.
In test [12] the target is Design 28 L1: D3H44 light chain F116A_S131K_V133G_S176F_T178A (humanized). Nature of the test: light chain competition assay: heavy chain co-expressed with L1 and L2, SPR read-out of light-chain tags; competitor Design 28 L2.
The target of test [13] is Design 28 L2: D3H44 light chain F118W_V133S_S176A_T180E (humanized). Nature of the test: light chain competition assay: heavy chain co-expressed with L1 and L2, SPR read-out of light-chain tags; competitor Design 28 L1.
Test [14] has as its target Design 31 L1: D3H44 light chain Q38R_L135W (humanized). Nature of the test: light chain competition assay: heavy chain co-expressed with L1 and L2, SPR read-out of light-chain tags; competitor Design 31 L2.
The target in test [15] is Design 31 L2: D3H44 light chain Q38D_F116A_L135A (humanized). Nature of the test: light chain competition assay: heavy chain co-expressed with L1 and L2, SPR read-out of light-chain tags; competitor Design 31 L1.
Test [16] concerns the target Design 15 L1: D3H44 light chain Q124E_Q160E_T178D (humanized). Briefly: light chain competition assay: heavy chain co-expressed with L1 and L2, SPR read-out of light-chain tags; competitor Design 15 L2.
In test [17] the target is Design 15 L2: D3H44 light chain Q160K_T178R (humanized). Briefly: light chain competition assay: heavy chain co-expressed with L1 and L2, SPR read-out of light-chain tags; competitor Design 15 L1.
Test [18] deals with Design 30 L1: D3H44 light chain Q124E_Q160E_T180E (humanized). Briefly: light chain competition assay: heavy chain co-expressed with L1 and L2, SPR read-out of light-chain tags; competitor Design 30 L2.
Test [19] concerns the target Design 30 L2: D3H44 light chain Q160K_T178R (humanized). Nature of the test: light chain competition assay: heavy chain co-expressed with L1 and L2, SPR read-out of light-chain tags; competitor Design 30 L1.
The target of test [20] is Design 29 L2: D3H44 light chain Q124R (humanized). Briefly: light chain competition assay: heavy chain co-expressed with L1 and L2, SPR read-out of light-chain tags; competitor Design 29 L1.
Test [21] deals with Design 29 L1: D3H44 light chain Q124E_V133D (humanized). Briefly: light chain competition assay: heavy chain co-expressed with L1 and L2, SPR read-out of light-chain tags; competitor Design 29 L2.
The target of test [22] is Design 11 L1: D3H44 light chain V133S (humanized). Briefly: light chain competition assay: heavy chain co-expressed with L1 and L2, SPR read-out of light-chain tags; competitor Design 11 L2.
Test [23] deals with Design 11 L2: D3H44 light chain S176L (humanized). Nature of the test: light chain competition assay: heavy chain co-expressed with L1 and L2, SPR read-out of light-chain tags; competitor Design 11 L1.
In test [24] the target is Design 12 L1: D3H44 light chain L89R_F98W (humanized). Nature of the test: light chain competition assay: heavy chain co-expressed with L1 and L2, SPR read-out of light-chain tags; competitor Design 12 L2 (WT).
Test [25] has as its target D3H44 light chain, wild type (Design 12 L2) (humanized). Nature of the test: light chain competition assay: heavy chain co-expressed with L1 and L2, SPR read-out of light-chain tags; competitor Design 12 L1.

For “Design 14 H2: D3H44 heavy chain K147E_D148G_Q175D_S183L”, the H2 Readout in test [1] was determined as 2%; in test [2] it was 74%.
Turning to Design 32 H2: D3H44 heavy chain Q39R, the H2 Readout was determined as 1% in [3] and 93% in [4].
“Design 26 H2: D3H44 heavy chain A139W_K145Y_Q175E”: the H2 Readout was 106% in test [5] and 1% in test [6].
The term Kd denotes the concentration at which binding is half-saturated. The low end stands for tighter binding, the high end for weaker binding. The substance “Design 13 H2-L2 heterodimer (D3H44 heavy K145T_Q179D_S188F, light V133A_Q160K_T178R) (Fab)” yielded a Kd in test [7] of 0.086 nM.
As to “Design 13 H1: D3H44 heavy chain L143A_D144G_Q179R”, the H1 Readout in test [8] was found to be 104%; in [9] it was 1%.
Regarding “Design 27 H1: D3H44 heavy chain A139I_K145T_D146G_Q179E_S188G_V190S”, the H1 Readout was determined as 1% in [10] and 67% in test [11].
As for “Design 28 H2: D3H44 heavy chain A139W_S186K_S188A”, the H2 Readout in test [12] stood at 1%; in [13], 94%.
As to “Design 28 H1: D3H44 heavy chain A139V_K145L_Q179E_S188G_V190S”, the values for the H1 Readout in [12] and in [13] were 85% and 4%, respectively.
Regarding “Design 31 H1: D3H44 heavy chain Q39D_A139G_V190A”, the figures for the H1 Readout in [14] and in test [15] were 106% and 1%, respectively.
Consider Design 32 H1: D3H44 heavy chain Q39E, for which the figures for the H1 Readout in test [3] and in test [4] were 98% and 1%, respectively.
On to “Design 15 H1: D3H44 heavy chain D146G_Q175R”, for which the results for the H1 Readout in test [16] and in [17] were 93% and 1%, respectively.
In the case of “Design 15 H2: D3H44 heavy chain K147T_Q175D_S183L”, the H2 Readout was determined as 24% in [16] and 83% in [17].
In the case of “Design 14 H1: D3H44 heavy chain D148G_S181R”, the H1 Readout in test [1] is 84%; in test [2], 1%.
The substance “Design 15 H2-L2 heterodimer (D3H44 heavy K147T_Q175D_S183L, light Q160K_T178R) (Fab)” showed a Kd in test [7] of 0.071 nM.
With “Design 30 H2: D3H44 heavy chain L143E_K145T”, the H2 Readout in [18] was determined as 1%; in test [19], 102%.
For the substance “Design 31 H2: D3H44 heavy chain Q39R_A139W”, the H2 Readout in [14] is 1%; in test [15], 78%.
Turning to “Design 11 H2-L2 heterodimer (D3H44 heavy F174V_P175S_S188G, light S176L) (Fab)”, the Kd in [7] was found to be 0.04 nM.
Take “Design 30 H1: D3H44 heavy chain D146G_Q179K”: the H1 Readout in [18] was 96%; in test [19], 1%.
“Wild-type D3H44 heterodimer (anti-tissue factor Fab, one heavy chain and one light chain)” displayed a Kd in test [7] of 0.052 nM.
Take “Design 27 H2: D3H44 heavy chain S186K_S188H_V190G”: the H2 Readout in [10] was 85%; in test [11], 12%.
In the case of “Design 29 H2: D3H44 heavy chain L143E_K145T”, the H2 Readout was found to be 102% in test [20] and 1% in [21].
In test [7], “Design 13 H1-L1 heterodimer (D3H44 heavy L143A_D144G_Q179R, light Q124E_V133W_Q160E_T180E) (Fab)” had a Kd of 0.087 nM.
The substance “Design 30 H2-L2 heterodimer (D3H44 heavy L143E_K145T, light Q160K_T178R) (Fab)” yielded a Kd in [7] of 0.06 nM.
On to “Design 30 H1-L1 heterodimer (D3H44 heavy D146G_Q179K, light Q124E_Q160E_T180E) (Fab)”, for which the Kd in test [7] is 0.024 nM.
Take “Design 11 H2: D3H44 heavy chain F174V_P175S_S188G”: the results for the H2 Readout in [22] and in test [23] were 1% and 98%, respectively.
As for “Design 26 H1: D3H44 heavy chain A139G_V190A”, the H1 Readout is 1% in [5] and 92% in test [6].
Take “Design 31 H1-L1 heterodimer (D3H44 heavy Q39D_A139G_V190A, light Q38R_L135W) (Fab)”: in test [7], the Kd was found to be 0.025 nM.
For “Design 11 H1: D3H44 heavy chain S188L_V190Y”, the values for the H1 Readout in test [22] and in [23] were 83% and 24%, respectively.
Consider “Design 13 H2: D3H44 heavy chain K145T_Q179D_S188F”, for which the H2 Readout in [8] is 14%; in test [9], 87%.
For the substance “Design 29 H1: D3H44 heavy chain L143K_D146G”, the results for the H1 Readout in test [20] and in test [21] were 1% and 93%, respectively.
In test [7], “Design 15 H1-L1 heterodimer (D3H44 heavy D146G_Q175R, light Q124E_Q160E_T178D) (Fab)” showed a Kd of 0.082 nM.
Turning to “Design 11 H1-L1 heterodimer (D3H44 heavy S188L_V190Y, light V133S) (Fab)”, in [7], the Kd worked out at 0.043 nM.
As to “D3H44 heavy chain, wild type (Design 12 H2)”, the H2 Readout in test [24] stood at 15%; in test [25], 88%.
On to “Design 12 H1: D3H44 heavy chain V37E_F100D”, for which the H1 Readout in test [24] turned out to be 99%; in test [25], 10%.
